B1: α1s II–III loop C region peptide (residues 720–765) [not stated] / DHPR β1a subunit, full length [mouse] (parent complex)
chain 1: LKVDEFESNVNEVKDPYPSADFPGDDEEDEPEIPVSPRPRPLAELQ
chain 2: not shown

Variants of: B1
Test: intrinsic fluorescence binding (fluorescence quenching at 340 nm); read at the last titration point, 9 µM peptide; parent: 0.66; read off a plot

response | Variant
~0.93 | chain 1 P16A, chain 1 P18A, chain 1 P23A, chain 1 P31A, chain 1 P34A, chain 1 P37A, chain 1 P39A, chain 1 P41A

Source: paper PMC12650144 (2025)
